Reference: patent US20210139559A1 (XL PROTEIN, published 2021)
Where two headings read alike, the source gives them in different places.

Tests used:
human VEGF165 ligand [1] = target: T1, human VEGF165 ligand (human, UniProt P15692-4 27-191); assay: cell-based or functional assay
human VEGF165 ligand [2] = target: T1, human VEGF165 ligand; assay: serial dilution mixed with 50 pM human VEGF165 in solution, unbound VEGF165 measured by ELISA
Protocol: The amount of unbound VEGF₁₆₅ was then measured by a human VEGF-specific ELISA (Human VEGF DuoSet ELISA kit, R&D Systems, CAT. No. DY293B-05).
(§1) Unbound human VEGF₁₆₅ or PDGF-BB was calculated using 4 parameters curve with the absorbance value. And the IC₅₀ of the tested fusion proteins and the reference was calculated using 4 parameters curve with unbound human VEGF₁₆₅ or PDGF-BB.

human PDGF-BB ligand [3] = target: T2, human PDGF-BB ligand (human, UniProt P01127 82-190); assay: serial dilution mixed with 1 ng/ml human PDGF-BB in solution, unbound PDGF-BB measured by ELISA
Protocol: The amount of unbound PDGF-BB was then measured by a human PDGF-BB-specific ELISA (Human PDGF-BB DuoSet ELISA kit, R&D Systems, CAT. No. DY220).
as §1

human VEGF165 ligand [4] = target: T1, human VEGF165 ligand; assay: cell-based or functional assay; remark: listed apart in the source
human PDGF-BB ligand [5] = target: T2, human PDGF-BB ligand; assay: native PAGE electromobility gel shift; alone or together with VEGF165
Protocol: EPS1104P was mixed with VEGF₁₆₅ (#C083, Novoprotein, Shanghai, China), PDGF-BB (#C199, Novoprotein, Shanghai, China) and VEGF+PDGF-BB, and incubated in an ice bath for 30 min. 40 μL of the above three incubation mixtures and EPS1104P were added to 10 μl of 5× Loading buffer (#ES005, Wanshenghaotian, Shanghai, China), respectively, and the four samples were loaded on a native PAGE gel (#NGSH2001-8T, Wanshenghaotian, Shanghai, China). The electrophoresis was run at 70 V for 6 hours. The gel was stained with Coomassie blue and then bleached. […] It is also possible to combine EPS1104P with both VEGF165 and PDGF-BB to form a stable complex.

T1 sequence (P15692 other isoform, or with tags, fused parts or gaps limits assumed): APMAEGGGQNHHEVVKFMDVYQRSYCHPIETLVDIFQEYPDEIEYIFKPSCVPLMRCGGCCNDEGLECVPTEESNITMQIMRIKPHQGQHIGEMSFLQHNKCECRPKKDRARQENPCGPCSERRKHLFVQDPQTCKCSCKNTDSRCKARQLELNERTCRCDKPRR
T2 sequence (P01127 82-190): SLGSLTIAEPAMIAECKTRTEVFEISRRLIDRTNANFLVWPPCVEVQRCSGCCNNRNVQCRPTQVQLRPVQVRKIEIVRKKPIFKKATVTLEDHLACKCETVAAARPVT

Binder | Inhibition of HUVEC cells proliferation, IC50 (human VEGF165 ligand [1]) [nM] | IC50 (human VEGF165 ligand [2]) [nM] | IC50 (human PDGF-BB ligand [3]) [nM] | Inhibition of HUVEC cells proliferation, IC50 (human VEGF165 ligand [4]) [nM] | binding result (human PDGF-BB ligand [5])
PDGFRαD123-PAS(200)-VEGFR1D2/R2D3 fusion protein (receptor, glycosylated (as purified from MEXi-293E medium), also called EPS1108P) QLSLPSILPNENEKVVQLNSSFSLRCFGESEVSWQYPMSEEESSDVEIRNEENNSGLFVTVLEVSSASAAHTGLYTCYYNHTQTEENELEGRHIYIYVPDPDVAFVPLGMTDYLVIVEDDDSAIIPCRTTDPETPVTLHNSEGVVPASYDSRQGFNGTFTVGPYICEATVKGKKFQTIPFNVYALKATSELDLEMEALKTVYKSGETIVVTCAVFNNEVVDLQWTYPGEVKGKGITMLEEIKVPSIKLVYTLTVPEATVKDSGDYECAARQATREVKEMKKVTISVHEKGASPAAPAPASPAAPAPSAPAASPAAPAPASPAAPAPSAPAASPAAPAPASPAAPAPSAPAASPAAPAPASPAAPAPSAPAASPAAPAPASPAAPAPSAPAASPAAPAPASPAAPAPSAPAASPAAPAPASPAAPAPSAPAASPAAPAPASPAAPAPSAPAASPAAPAPASPAAPAPSAPAASPAAPAPASPAAPAPSAPAASDTGRPFVEMYSEIPEIIHMTEGRELVIPCRVTSPNITVTLKKFPLDTLIPDGKRIIWDSRKGFIISNATYKEIGLLTCEATVNGHLYKTNYLTHRQTNTIIDVVLSPSHGIELSVGEKLVLNCTARTELNVGIDFNWEYPSSKHQHKKLVNRDLKTQSGSEMKKFLSTLTIDGVTRSDQGLYTCAASSGLMTKKNSTFVRVHEKHHHHHHA | 28.5 | 0.32 | 66.3 | – | –
VEGFR1D2/R2D3-(GGGGS)3-PAS(200)-(GGGGS)3-PDGFRαD123 (receptor, also called EPS1107P) SDTGRPFVEMYSEIPEIIHMTEGRELVIPCRVTSPNITVTLKKFPLDTLIPDGKRIIWDSRKGFIISNATYKEIGLLTCEATVNGHLYKTNYLTHRQTNTIIDVVLSPSHGIELSVGEKLVLNCTARTELNVGIDFNWEYPSSKHQHKKLVNRDLKTQSGSEMKKFLSTLTIDGVTRSDQGLYTCAASSGLMTKKNSTFVRVHEKGGGGSGGGGSGGGGSASPAAPAPASPAAPAPSAPAASPAAPAPASPAAPAPSAPAASPAAPAPASPAAPAPSAPAASPAAPAPASPAAPAPSAPAASPAAPAPASPAAPAPSAPAASPAAPAPASPAAPAPSAPAASPAAPAPASPAAPAPSAPAASPAAPAPASPAAPAPSAPAASPAAPAPASPAAPAPSAPAASPAAPAPASPAAPAPSAPAGGGGSGGGGSGGGGSQLSLPSILPNENEKVVQLNSSFSLRCFGESEVSWQYPMSEEESSDVEIRNEENNSGLFVTVLEVSSASAAHTGLYTCYYNHTQTEENELEGRHIYIYVPDPDVAFVPLGMTDYLVIVEDDDSAIIPCRTTDPETPVTLHNSEGVVPASYDSRQGFNGTFTVGPYICEATVKGKKFQTIPFNVYALKATSELDLEMEALKTVYKSGETIVVTCAVFNNEVVDLQWTYPGEVKGKGITMLEEIKVPSIKLVYTLTVPEATVKDSGDYECAARQATREVKEMKKVTISVHEKGHHHHHH | 53.1 | 0.304 | – | – | –
PDGFRαD123-(GGGGS)3-PAS(200)-(GGGGS)3-VEGFR1D2/R2D3 (receptor, also called EPS1106P) QLSLPSILPNENEKVVQLNSSFSLRCFGESEVSWQYPMSEEESSDVEIRNEENNSGLFVTVLEVSSASAAHTGLYTCYYNHTQTEENELEGRHIYIYVPDPDVAFVPLGMTDYLVIVEDDDSAIIPCRTTDPETPVTLHNSEGVVPASYDSRQGFNGTFTVGPYICEATVKGKKFQTIPFNVYALKATSELDLEMEALKTVYKSGETIVVTCAVFNNEVVDLQWTYPGEVKGKGITMLEEIKVPSIKLVYTLTVPEATVKDSGDYECAARQATREVKEMKKVTISVHEKGGGGGSGGGGSGGGGSASPAAPAPASPAAPAPSAPAASPAAPAPASPAAPAPSAPAASPAAPAPASPAAPAPSAPAASPAAPAPASPAAPAPSAPAASPAAPAPASPAAPAPSAPAASPAAPAPASPAAPAPSAPAASPAAPAPASPAAPAPSAPAASPAAPAPASPAAPAPSAPAASPAAPAPASPAAPAPSAPAASPAAPAPASPAAPAPSAPAGGGGSGGGGSGGGGSSDTGRPFVEMYSEIPEIIHMTEGRELVIPCRVTSPNITVTLKKFPLDTLIPDGKRIIWDSRKGFIISNATYKEIGLLTCEATVNGHLYKTNYLTHRQTNTIIDVVLSPSHGIELSVGEKLVLNCTARTELNVGIDFNWEYPSSKHQHKKLVNRDLKTQSGSEMKKFLSTLTIDGVTRSDQGLYTCAASSGLMTKKNSTFVRVHEKHHHHHH | 39.7 | 0.555 | – | – | –
PDGFRαD123-PAS(400)-VEGFR1D2/R2D3 (receptor, also called EPS1104P) QLSLPSILPNENEKVVQLNSSFSLRCFGESEVSWQYPMSEEESSDVEIRNEENNSGLFVTVLEVSSASAAHTGLYTCYYNHTQTEENELEGRHIYIYVPDPDVAFVPLGMTDYLVIVEDDDSAIIPCRTTDPETPVTLHNSEGVVPASYDSRQGFNGTFTVGPYICEATVKGKKFQTIPFNVYALKATSELDLEMEALKTVYKSGETIVVTCAVFNNEVVDLQWTYPGEVKGKGITMLEEIKVPSIKLVYTLTVPEATVKDSGDYECAARQATREVKEMKKVTISVHEKGASPAAPAPASPAAPAPSAPAASPAAPAPASPAAPAPSAPAASPAAPAPASPAAPAPSAPAASPAAPAPASPAAPAPSAPAASPAAPAPASPAAPAPSAPAASPAAPAPASPAAPAPSAPAASPAAPAPASPAAPAPSAPAASPAAPAPASPAAPAPSAPAASPAAPAPASPAAPAPSAPAASPAAPAPASPAAPAPSAPAASPAAPAPASPAAPAPSAPAASPAAPAPASPAAPAPSAPAASPAAPAPASPAAPAPSAPAASPAAPAPASPAAPAPSAPAASPAAPAPASPAAPAPSAPAASPAAPAPASPAAPAPSAPAASPAAPAPASPAAPAPSAPAASPAAPAPASPAAPAPSAPAASPAAPAPASPAAPAPSAPAASPAAPAPASPAAPAPSAPASDTGRPFVEMYSEIPEIIHMTEGRELVIPCRVTSPNITVTLKKFPLDTLIPDGKRIIWDSRKGFIISNATYKEIGLLTCEATVNGHLYKTNYLTHRQTNTIIDVVLSPSHGIELSVGEKLVLNCTARTELNVGIDFNWEYPSSKHQHKKLVNRDLKTQSGSEMKKFLSTLTIDGVTRSDQGLYTCAASSGLMTKKNSTFVRVHEKHHHHHH | – | 0.495 | – | 1.43 | binds
VEGFR1D2/R2D3-PAS(200)-PDGFRαD123 (receptor, also called EPS1105P) SDTGRPFVEMYSEIPEIIHMTEGRELVIPCRVTSPNITVTLKKFPLDTLIPDGKRIIWDSRKGFIISNATYKEIGLLTCEATVNGHLYKTNYLTHRQTNTIIDVVLSPSHGIELSVGEKLVLNCTARTELNVGIDFNWEYPSSKHQHKKLVNRDLKTQSGSEMKKFLSTLTIDGVTRSDQGLYTCAASSGLMTKKNSTFVRVHEKASPAAPAPASPAAPAPSAPAASPAAPAPASPAAPAPSAPAASPAAPAPASPAAPAPSAPAASPAAPAPASPAAPAPSAPAASPAAPAPASPAAPAPSAPAASPAAPAPASPAAPAPSAPAASPAAPAPASPAAPAPSAPAASPAAPAPASPAAPAPSAPAASPAAPAPASPAAPAPSAPAASPAAPAPASPAAPAPSAPAQLSLPSILPNENEKVVQLNSSFSLRCFGESEVSWQYPMSEEESSDVEIRNEENNSGLFVTVLEVSSASAAHTGLYTCYYNHTQTEENELEGRHIYIYVPDPDVAFVPLGMTDYLVIVEDDDSAIIPCRTTDPETPVTLHNSEGVVPASYDSRQGFNGTFTVGPYICEATVKGKKFQTIPFNVYALKATSELDLEMEALKTVYKSGETIVVTCAVFNNEVVDLQWTYPGEVKGKGITMLEEIKVPSIKLVYTLTVPEATVKDSGDYECAARQATREVKEMKKVTISVHEKGHHHHHH | 28.4 | 0.546 | – | – | –
